# In patent US20190134153A1, “IMMUNOMODULATORY EFFECT OF INHALED KINASE INHIBITOR PEPTIDES IN LUNG” (MOERAE MATRIX, INC., priority 2017, published 2019):
# Experiments:
# Assay in all cases: Kinase Profiling Assay
# Type in all cases: biochemical
# Conditions in all cases: 100 μM
# Flt3(h) = Flt3(h) (Homo sapiens, UniProt P36888)
# CaMKI(h) = CaMKI(h) (Homo sapiens, UniProt Q14012)
# BrSK1(h) = molecular target: T1, BrSK1(h) (Homo sapiens, UniProt Q8TDC3)
# T1 sequence (Q8TDC3 1-778): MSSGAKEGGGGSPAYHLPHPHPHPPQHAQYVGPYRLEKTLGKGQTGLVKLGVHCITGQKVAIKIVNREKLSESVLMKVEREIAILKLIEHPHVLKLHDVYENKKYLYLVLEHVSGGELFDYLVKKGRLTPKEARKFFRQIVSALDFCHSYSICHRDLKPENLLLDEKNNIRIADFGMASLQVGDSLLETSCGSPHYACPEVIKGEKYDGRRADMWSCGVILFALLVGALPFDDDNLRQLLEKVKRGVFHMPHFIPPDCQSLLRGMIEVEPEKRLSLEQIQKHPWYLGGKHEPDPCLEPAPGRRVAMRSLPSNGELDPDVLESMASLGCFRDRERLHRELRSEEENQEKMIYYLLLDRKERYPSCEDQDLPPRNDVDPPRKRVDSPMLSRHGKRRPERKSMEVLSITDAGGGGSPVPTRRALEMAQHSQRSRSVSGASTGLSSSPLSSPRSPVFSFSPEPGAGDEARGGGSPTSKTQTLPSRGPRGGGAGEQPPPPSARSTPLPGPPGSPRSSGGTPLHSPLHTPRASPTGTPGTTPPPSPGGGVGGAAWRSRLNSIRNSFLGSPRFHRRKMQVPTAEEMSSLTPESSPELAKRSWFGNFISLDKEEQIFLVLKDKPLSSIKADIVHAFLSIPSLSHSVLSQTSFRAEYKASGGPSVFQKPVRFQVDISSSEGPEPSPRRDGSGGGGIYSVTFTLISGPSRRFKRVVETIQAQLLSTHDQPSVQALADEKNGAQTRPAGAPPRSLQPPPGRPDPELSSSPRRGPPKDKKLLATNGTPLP
# ULK3(h) = molecular target: T2, ULK3(h) (Homo sapiens, UniProt Q6PHR2)
# T2 sequence (Q6PHR2 1-472): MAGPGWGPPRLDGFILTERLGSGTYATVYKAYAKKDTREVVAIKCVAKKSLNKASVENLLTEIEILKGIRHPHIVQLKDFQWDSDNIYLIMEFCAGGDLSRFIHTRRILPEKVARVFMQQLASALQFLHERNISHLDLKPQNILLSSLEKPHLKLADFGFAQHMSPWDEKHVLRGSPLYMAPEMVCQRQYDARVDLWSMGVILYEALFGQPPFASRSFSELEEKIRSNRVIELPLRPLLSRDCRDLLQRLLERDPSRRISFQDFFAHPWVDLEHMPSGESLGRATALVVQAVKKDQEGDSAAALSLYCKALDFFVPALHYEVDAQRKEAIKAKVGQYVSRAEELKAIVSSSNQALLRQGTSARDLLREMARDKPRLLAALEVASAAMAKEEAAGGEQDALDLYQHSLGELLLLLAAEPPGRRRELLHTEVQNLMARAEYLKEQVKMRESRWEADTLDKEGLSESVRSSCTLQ
# MRCKβ(h) = MRCKβ(h) (Homo sapiens, UniProt Q9Y5S2)
# Fms(Y969C)(h) = Fms(Y969C)(h) (Homo sapiens, UniProt P07333, Y969C)
# EphA4(h) = EphA4(h) (Homo sapiens, UniProt P54764)
# RIPK2(h) = RIPK2(h) (Homo sapiens, UniProt O43353)
# CDK6/cyclinD3(h) = CDK6/cyclinD3(h) (Homo sapiens, UniProt Q00534)
# MuSK(h) = molecular target: T3, MuSK(h) (Homo sapiens, UniProt O15146)
# T3 sequence (O15146 24-869): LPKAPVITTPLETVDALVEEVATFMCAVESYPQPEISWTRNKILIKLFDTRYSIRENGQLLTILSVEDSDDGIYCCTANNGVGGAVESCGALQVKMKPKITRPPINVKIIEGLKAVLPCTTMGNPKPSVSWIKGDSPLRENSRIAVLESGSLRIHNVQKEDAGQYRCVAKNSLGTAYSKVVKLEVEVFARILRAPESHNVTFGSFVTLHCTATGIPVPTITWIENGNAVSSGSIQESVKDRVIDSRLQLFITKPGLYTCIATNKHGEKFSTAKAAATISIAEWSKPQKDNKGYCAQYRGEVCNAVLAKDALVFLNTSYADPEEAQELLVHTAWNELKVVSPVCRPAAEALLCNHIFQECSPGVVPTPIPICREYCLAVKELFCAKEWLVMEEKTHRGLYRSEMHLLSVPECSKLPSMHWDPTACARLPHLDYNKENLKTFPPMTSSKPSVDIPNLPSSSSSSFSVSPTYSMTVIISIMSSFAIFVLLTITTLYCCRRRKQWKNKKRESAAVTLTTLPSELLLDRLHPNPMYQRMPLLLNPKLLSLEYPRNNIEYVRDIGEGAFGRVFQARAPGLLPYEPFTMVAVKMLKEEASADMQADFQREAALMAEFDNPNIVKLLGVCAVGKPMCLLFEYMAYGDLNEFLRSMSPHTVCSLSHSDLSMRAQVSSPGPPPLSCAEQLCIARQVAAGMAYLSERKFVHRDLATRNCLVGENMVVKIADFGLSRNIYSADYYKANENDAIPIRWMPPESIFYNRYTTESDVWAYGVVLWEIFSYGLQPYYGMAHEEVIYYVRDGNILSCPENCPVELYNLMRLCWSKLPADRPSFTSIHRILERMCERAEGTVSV
# CK1δ(h) = CK1δ(h) (Homo sapiens, UniProt P48730)
# CK1δ(h), sequence (P48730 whole entry): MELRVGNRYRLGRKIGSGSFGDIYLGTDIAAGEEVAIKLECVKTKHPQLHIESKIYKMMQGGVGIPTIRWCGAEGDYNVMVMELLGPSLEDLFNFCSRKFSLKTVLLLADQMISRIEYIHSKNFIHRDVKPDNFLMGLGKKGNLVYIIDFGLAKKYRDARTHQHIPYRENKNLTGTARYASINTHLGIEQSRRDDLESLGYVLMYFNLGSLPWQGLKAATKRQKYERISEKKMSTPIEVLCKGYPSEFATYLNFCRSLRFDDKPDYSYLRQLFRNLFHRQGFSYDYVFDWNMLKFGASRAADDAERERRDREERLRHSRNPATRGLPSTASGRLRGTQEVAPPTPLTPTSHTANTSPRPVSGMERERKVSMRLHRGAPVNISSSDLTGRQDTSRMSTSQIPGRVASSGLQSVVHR
# MRCKβ(h), sequence (Q9Y5S2 whole entry): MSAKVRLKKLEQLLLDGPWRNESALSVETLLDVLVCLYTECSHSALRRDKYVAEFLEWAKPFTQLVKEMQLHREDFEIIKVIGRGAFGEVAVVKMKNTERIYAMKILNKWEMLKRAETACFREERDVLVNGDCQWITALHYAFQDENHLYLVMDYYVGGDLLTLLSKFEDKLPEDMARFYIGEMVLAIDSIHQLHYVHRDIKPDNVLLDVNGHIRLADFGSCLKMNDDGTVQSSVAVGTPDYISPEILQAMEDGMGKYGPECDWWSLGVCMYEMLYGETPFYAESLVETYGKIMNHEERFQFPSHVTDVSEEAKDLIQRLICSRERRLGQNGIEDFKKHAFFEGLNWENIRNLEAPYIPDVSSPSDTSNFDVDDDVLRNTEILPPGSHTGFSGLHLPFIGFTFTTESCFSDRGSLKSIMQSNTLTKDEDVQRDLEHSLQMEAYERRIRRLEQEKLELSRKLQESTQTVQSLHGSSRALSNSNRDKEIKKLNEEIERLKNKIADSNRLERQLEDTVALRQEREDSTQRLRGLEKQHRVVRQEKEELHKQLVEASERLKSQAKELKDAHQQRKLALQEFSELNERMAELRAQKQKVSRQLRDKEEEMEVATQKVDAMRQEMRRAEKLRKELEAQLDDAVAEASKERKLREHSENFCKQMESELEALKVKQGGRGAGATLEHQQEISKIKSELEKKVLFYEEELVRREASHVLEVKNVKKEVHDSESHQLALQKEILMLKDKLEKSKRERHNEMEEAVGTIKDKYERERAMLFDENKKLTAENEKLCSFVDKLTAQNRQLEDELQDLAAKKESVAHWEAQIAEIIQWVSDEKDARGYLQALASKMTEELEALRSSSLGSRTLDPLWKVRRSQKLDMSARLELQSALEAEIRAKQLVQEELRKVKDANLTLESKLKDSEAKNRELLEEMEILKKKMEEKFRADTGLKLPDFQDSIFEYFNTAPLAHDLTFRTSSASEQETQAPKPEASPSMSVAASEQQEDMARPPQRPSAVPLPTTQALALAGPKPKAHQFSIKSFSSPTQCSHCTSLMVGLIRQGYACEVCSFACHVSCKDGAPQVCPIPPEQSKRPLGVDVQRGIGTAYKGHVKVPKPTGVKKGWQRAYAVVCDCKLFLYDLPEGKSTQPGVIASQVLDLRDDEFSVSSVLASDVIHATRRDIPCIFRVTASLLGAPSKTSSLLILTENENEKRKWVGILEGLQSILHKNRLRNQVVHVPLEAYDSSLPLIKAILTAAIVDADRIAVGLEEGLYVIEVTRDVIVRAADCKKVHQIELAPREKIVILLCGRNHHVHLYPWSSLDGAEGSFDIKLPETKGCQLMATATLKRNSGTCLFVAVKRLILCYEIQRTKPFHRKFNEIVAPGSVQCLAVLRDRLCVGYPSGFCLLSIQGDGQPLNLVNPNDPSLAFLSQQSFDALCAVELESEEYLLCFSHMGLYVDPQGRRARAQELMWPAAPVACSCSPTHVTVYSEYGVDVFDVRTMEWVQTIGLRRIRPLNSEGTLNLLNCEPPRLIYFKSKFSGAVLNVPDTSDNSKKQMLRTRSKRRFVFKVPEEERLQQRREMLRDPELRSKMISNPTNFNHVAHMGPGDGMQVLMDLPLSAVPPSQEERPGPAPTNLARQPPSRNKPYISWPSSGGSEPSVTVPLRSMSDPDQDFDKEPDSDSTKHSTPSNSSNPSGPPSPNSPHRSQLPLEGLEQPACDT
# CaMKI(h), sequence (Q14012 whole entry): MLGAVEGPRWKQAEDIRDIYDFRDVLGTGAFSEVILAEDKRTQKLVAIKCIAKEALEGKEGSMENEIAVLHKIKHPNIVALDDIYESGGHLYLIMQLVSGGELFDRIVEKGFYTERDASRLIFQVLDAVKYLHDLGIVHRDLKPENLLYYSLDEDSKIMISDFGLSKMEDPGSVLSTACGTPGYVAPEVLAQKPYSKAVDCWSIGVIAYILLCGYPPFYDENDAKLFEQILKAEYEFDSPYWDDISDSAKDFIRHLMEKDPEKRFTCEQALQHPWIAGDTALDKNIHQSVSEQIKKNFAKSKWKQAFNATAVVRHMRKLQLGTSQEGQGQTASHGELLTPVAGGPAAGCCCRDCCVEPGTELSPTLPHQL
# RIPK2(h), sequence (O43353 whole entry): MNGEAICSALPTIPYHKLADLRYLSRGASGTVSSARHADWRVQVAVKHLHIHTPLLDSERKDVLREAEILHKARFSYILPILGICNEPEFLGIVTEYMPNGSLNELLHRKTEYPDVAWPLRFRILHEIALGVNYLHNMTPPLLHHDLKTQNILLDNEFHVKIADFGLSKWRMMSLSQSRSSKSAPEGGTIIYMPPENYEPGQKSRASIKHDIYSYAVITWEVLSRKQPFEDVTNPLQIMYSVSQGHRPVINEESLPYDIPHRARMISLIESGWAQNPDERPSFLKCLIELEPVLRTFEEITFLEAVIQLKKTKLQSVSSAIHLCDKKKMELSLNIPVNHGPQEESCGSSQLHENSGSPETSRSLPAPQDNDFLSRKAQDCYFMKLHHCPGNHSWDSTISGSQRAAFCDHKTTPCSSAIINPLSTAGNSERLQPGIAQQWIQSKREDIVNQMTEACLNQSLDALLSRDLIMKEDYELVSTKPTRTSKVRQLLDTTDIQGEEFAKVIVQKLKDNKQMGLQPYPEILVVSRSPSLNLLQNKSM
# EphA4(h), sequence (P54764 20-986): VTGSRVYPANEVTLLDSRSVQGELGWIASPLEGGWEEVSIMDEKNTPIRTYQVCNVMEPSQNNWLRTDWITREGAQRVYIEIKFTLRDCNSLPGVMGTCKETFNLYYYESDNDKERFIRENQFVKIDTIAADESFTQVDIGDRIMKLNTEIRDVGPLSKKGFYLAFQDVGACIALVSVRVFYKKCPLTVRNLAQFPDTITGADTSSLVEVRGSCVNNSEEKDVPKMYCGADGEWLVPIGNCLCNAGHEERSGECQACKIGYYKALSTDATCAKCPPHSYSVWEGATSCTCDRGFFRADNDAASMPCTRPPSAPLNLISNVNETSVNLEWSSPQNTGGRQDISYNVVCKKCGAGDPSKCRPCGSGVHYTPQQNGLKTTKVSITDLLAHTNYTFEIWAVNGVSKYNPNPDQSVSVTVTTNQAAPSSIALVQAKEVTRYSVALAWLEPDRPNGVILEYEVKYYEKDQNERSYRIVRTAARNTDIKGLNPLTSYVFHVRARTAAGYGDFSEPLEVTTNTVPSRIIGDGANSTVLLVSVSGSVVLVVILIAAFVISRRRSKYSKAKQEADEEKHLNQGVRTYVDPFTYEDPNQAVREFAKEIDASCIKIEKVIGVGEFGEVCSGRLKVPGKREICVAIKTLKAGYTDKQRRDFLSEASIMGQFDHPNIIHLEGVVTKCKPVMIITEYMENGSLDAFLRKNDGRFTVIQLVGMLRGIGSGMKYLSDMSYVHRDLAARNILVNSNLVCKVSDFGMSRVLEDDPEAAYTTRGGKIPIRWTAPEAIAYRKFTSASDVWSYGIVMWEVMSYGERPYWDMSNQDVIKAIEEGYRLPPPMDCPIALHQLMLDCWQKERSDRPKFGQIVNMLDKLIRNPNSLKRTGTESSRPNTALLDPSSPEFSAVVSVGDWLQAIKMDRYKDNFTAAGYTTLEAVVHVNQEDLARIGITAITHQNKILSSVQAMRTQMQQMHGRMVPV
# CDK6/cyclinD3(h), sequence (Q00534 whole entry): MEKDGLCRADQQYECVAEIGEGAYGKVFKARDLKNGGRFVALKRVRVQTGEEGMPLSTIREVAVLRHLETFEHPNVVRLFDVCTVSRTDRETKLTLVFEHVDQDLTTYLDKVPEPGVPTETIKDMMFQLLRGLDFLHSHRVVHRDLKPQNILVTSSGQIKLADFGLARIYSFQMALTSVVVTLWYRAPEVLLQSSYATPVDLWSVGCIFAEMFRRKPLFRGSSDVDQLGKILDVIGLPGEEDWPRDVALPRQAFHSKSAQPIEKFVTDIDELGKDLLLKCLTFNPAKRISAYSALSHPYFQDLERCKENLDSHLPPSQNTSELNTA
# CDK6/cyclinD3(h), sequence (P30281 whole entry partner): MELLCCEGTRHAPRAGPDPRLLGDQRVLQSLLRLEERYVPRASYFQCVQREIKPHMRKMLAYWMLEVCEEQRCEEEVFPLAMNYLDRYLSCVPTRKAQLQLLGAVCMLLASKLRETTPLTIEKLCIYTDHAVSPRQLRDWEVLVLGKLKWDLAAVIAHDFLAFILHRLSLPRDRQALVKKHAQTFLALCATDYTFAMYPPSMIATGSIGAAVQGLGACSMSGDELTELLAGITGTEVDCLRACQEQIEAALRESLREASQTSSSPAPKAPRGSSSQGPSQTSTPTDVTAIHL
Sequence,% activity (Flt3(h)),% activity (CaMKI(h)),% activity (BrSK1(h)),% activity (ULK3(h)),% activity (MRCKβ(h)),% activity (Fms(Y969C)(h)),% activity (EphA4(h)),% activity (RIPK2(h)),% activity (CDK6/cyclinD3(h)),% activity (MuSK(h)),% activity (CK1δ(h))
FAKLAARLYRKALARQLGVAA [MMI-0300],84%,1%,67%,167%,83%,72%,88%,97%,86%,93%,92%
HRRIKAWLKKIKALARQLGVAA [MMI-0500],17%,−1%,72%,177%,−10%,,48%,30%,23%,27%,78%
KAFAKLAARLYRKALARQLGVAA [MMI-0400],18%,0%,76%,147%,71%,91%,65%,98%,85%,93%,93%
YARAAARQARAKALNRQLGVA [MMI-0200],99%,21%,93%,164%,,88%,127%,98%,100%,,92%
